Measurements from US20250333512A1.

How the values were obtained:
Experiment in all cases: cell-based or functional assay
Design in all cases: AUC (IL-2 ELISA): unit not given beside the values
[1] = target: chimeric receptor containing a rhesus macaque FcγRIIB ectodomain and the CD3ζ intracellular signaling domain (rhesus macaque)
[2] = target: chimeric receptor containing a rhesus macaque FcγRIIA ectodomain and the CD3ζ intracellular signaling domain (rhesus macaque)
[3] = target: chimeric receptor containing a rhesus macaque FcγRIII ectodomain and the CD3ζ intracellular signaling domain (rhesus macaque) (UniProt A3RFZ7)
chimeric receptor containing a rhesus macaque FcγRIII ectodomain and the CD3ζ intracellular signaling domain (rhesus macaque), sequence (A3RFZ7 whole entry, change not shown, the tested form may be a part): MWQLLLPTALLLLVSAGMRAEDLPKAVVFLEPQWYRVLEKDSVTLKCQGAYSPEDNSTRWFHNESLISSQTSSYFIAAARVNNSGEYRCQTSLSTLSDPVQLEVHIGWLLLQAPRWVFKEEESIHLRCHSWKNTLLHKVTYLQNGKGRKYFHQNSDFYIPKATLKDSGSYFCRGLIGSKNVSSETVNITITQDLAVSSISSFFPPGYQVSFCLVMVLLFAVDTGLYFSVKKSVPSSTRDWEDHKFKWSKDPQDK

[4] = target: chimeric receptor containing a rhesus macaque FcγRI ectodomain and the CD3ζ intracellular signaling domain (rhesus macaque)

PGT121 (Mammalian) (antibody), sequence (heavy): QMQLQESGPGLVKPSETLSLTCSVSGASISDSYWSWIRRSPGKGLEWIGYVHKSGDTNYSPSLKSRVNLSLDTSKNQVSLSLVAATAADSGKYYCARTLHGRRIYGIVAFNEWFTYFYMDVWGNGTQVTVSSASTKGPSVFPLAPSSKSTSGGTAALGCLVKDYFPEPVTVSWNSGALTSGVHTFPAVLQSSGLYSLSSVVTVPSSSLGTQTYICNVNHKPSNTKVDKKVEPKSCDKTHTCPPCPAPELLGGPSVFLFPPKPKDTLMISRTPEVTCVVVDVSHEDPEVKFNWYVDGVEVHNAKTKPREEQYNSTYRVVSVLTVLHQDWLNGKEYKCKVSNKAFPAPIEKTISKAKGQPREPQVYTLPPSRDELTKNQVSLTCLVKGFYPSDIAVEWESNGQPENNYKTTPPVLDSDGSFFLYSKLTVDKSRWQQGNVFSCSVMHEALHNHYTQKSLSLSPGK
PGT121 (Mammalian) (antibody), sequence (light): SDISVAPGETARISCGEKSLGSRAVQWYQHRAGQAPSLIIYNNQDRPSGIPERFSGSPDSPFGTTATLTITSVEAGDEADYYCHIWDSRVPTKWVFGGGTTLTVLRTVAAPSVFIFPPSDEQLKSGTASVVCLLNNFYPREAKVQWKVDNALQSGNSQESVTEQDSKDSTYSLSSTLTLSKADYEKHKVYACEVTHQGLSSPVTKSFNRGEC

| AUC (IL-2 ELISA) [1] | EC50 (IL-2 ELISA) [1] [µg/mL] | AUC (IL-2 ELISA) [2] | EC50 (IL-2 ELISA) [2] [µg/mL] | AUC (IL-2 ELISA) [3] | EC50 (IL-2 ELISA) [3] [µg/mL] | AUC (IL-2 ELISA) [4] | EC50 (IL-2 ELISA) [4] [µg/mL] | Substance |
| --- | --- | --- | --- | --- | --- | --- | --- | --- |
| 0.256 | > 50 | 0.246 | > 50 | 0.226 | > 50 | 3.99 | 0.735 | Nb PGT121-YTE (antibody) |
| 0.636 | 3.58 | 3.74 | 1.72 |  |  | 3.55 | 0.619 | PGT121 (Mammalian) (antibody) |
| 1.36 | 1.95 | 4.5 | 0.853 | 1.82 | 0.637 | 4.37 | 0.303 | VRC07-523-LS(Mammalian) (antibody) |
| 1.26 | 2.1 | 4.15 | 0.722 | 1.46 | 1.21 | 4.14 | 0.326 | VRC07-523 (Mammalian) (antibody) |
| 0.355 | > 50 | 0.334 | > 50 | 0.37 | > 50 | 4.69 | 0.419 | Nb VRC01-KDEL (antibody) |
| 0.4 | > 50 | 0.401 | > 50 | 0.934 | 3.57 | 4.46 | 0.548 | Nb PGT121-KDEL (antibody) |
